Data reported in patent US20200024330A1.

Columns and labels:
Experiment in all cases: cell-based or functional assay
[1] = molecular target: HIV-1 92BR020 envelope glycoprotein (Env) on pseudovirus (HIV-1)
[2] = molecular target: HIV-1 92RW020 envelope glycoprotein (Env) on pseudovirus (HIV-1)
[3] = molecular target: HIV-1 92TH021 envelope glycoprotein (Env) on pseudovirus (HIV-1)
[4] = molecular target: HIV-1 92UG024 envelope glycoprotein (Env) on pseudovirus (HIV-1)
[5] = molecular target: HIV-1 Env of isolate MGRM-AE-004 (HIV-1)
[6] = molecular target: HIV-1 Env of isolate MGRM-AE-005 (HIV-1)
[7] = molecular target: HIV-1 Env of isolate MGRM-AE-006 (HIV-1)
[8] = molecular target: HIV-1 Env of isolate MGRM-AE-007 (HIV-1)
[9] = molecular target: HIV-1 Env of isolate MGRM-AE-008 (HIV-1)
[10] = molecular target: HIV-1 Env of isolate MGRM-F1-016 (HIV-1)
[11] = molecular target: HIV-1 Env of isolate MGRM-G-001 (HIV-1)
[12] = molecular target: HIV-1 Env of isolate MGRM-G-004 (HIV-1)
[13] = molecular target: HIV-1 Env of isolate MGRM-G-006 (HIV-1)
[14] = molecular target: HIV-1 Env of isolate MGRM-G-009 (HIV-1)
[15] = molecular target: HIV-1 Env of isolate MGRM-G-011 (HIV-1)
[16] = molecular target: HIV-1 Env of isolate MGRM-G-013 (HIV-1)
[17] = molecular target: HIV-1 Env of isolate MGRM-G-014 (HIV-1)
[18] = molecular target: HIV-1 Env of isolate MGRM-G-015 (HIV-1)
[19] = molecular target: HIV-1 Env of isolate MGRM-G-016 (HIV-1)
[20] = molecular target: HIV-1 Env of isolate MGRM-G-017 (HIV-1)
[21] = molecular target: HIV-1 Env of isolate MGRM-G-019 (HIV-1)
[22] = molecular target: HIV-1 Env of isolate MGRM-G-027 (HIV-1)
[23] = molecular target: HIV-1 JR-CSF Env D477A (HIV-1 (isolate JR-CSF)) (UniProt P20871)
[24] = molecular target: HIV-1 NL43 envelope glycoprotein (Env) on pseudovirus (HIV-1)
[25] = molecular target: aMLV envelope (negative control pseudovirus)
[26] = molecular target: HIV-1 Env of isolate MGRM-AG-001 (HIV-1)
[27] = molecular target: HIV-1 Env of isolate MGRM-AG-002 (HIV-1)
[28] = molecular target: HIV-1 Env of isolate MGRM-AG-003 (HIV-1)
[29] = molecular target: HIV-1 Env of isolate MGRM-AG-005 (HIV-1)
[30] = molecular target: HIV-1 Env of isolate MGRM-AG-006 (HIV-1)
[31] = molecular target: HIV-1 Env of isolate MGRM-AG-008 (HIV-1)
[32] = molecular target: HIV-1 Env of isolate MGRM-AG-009 (HIV-1)
[33] = molecular target: HIV-1 Env of isolate MGRM-AG-011 (HIV-1)
[34] = molecular target: HIV-1 Env of isolate MGRM-AG-012 (HIV-1)
[35] = molecular target: HIV-1 Env of isolate MGRM-AG-013 (HIV-1)

5123_A06 (PGT-125) (antibody)
IC50 (ug/ml), neutralizing activity [1]: 0.0214 µg/mL | neutralization IC50 [1]: 0.0214 µg/mL | neutralization IC80 [1]: 0.0738 µg/mL | neutralization IC90 [1]: 0.156 µg/mL | neutralization IC95 [1]: 0.323 µg/mL | IC50 (ug/ml), neutralizing activity [2]: 0.0028 µg/mL | neutralization IC50 [2]: 0.0028 µg/mL | neutralization IC80 [2]: 0.011 µg/mL | neutralization IC90 [2]: 0.0248 µg/mL | neutralization IC95 [2]: 0.0526 µg/mL | IC50 (ug/ml), neutralizing activity [3]: 0.0066 µg/mL | neutralization IC50 [3]: 0.0066 µg/mL | neutralization IC80 [3]: 0.0292 µg/mL | neutralization IC90 [3]: 0.0701 µg/mL | neutralization IC95 [3]: 0.157 µg/mL | IC50 (ug/ml), neutralizing activity [4]: > 10 µg/mL | neutralization IC50 [4]: > 10 µg/mL | neutralization IC80 [4]: > 10 µg/mL | neutralization IC90 [4]: > 10 µg/mL | neutralization IC95 [4]: > 10 µg/mL | neutralization IC50 [5]: > 50 µg/mL | neutralization IC50 [6]: 0.01 µg/mL | neutralization IC50 [7]: 0.009 µg/mL | neutralization IC50 [8]: 0.876 µg/mL | neutralization IC50 [9]: > 50 µg/mL | IC50 [10]: > 50 µg/mL | IC50, pseudovirus neutralization [11]: 0.033 µg/mL | IC50, pseudovirus neutralization [12]: > 50 µg/mL | IC50, pseudovirus neutralization [13]: > 50 µg/mL | IC50, pseudovirus neutralization [14]: > 50 µg/mL | IC50, pseudovirus neutralization [15]: > 50 µg/mL | IC50, pseudovirus neutralization [16]: > 50 µg/mL | IC50, pseudovirus neutralization [17]: 0.007 µg/mL | IC50, pseudovirus neutralization [18]: > 50 µg/mL | IC50, pseudovirus neutralization [19]: > 50 µg/mL | IC50, pseudovirus neutralization [20]: > 50 µg/mL | IC50, pseudovirus neutralization [21]: > 50 µg/mL | IC50, pseudovirus neutralization [22]: 34.4 µg/mL | Fold IC50 increase relative to wild-type [23]: 3.4 fold | IC50 (ug/ml), neutralizing activity [24]: > 10 µg/mL | neutralization IC50 [24]: > 10 µg/mL | neutralization IC80 [24]: > 10 µg/mL | neutralization IC90 [24]: > 10 µg/mL | neutralization IC95 [24]: > 10 µg/mL | IC50, pseudovirus neutralization [25]: > 50 µg/mL

PGT-144 (4970_K22) (antibody)
IC50 [8]: > 50 µg/mL | IC50 [9]: 3.55 µg/mL | IC50 [26]: > 50 µg/mL | IC50 [27]: 7.78 µg/mL | IC50 [28]: > 50 µg/mL | IC50 [29]: > 50 µg/mL | IC50 [30]: > 50 µg/mL | IC50 [31]: > 50 µg/mL | IC50 [32]: > 50 µg/mL | IC50 [33]: 44.6 µg/mL | IC50 [34]: > 50 µg/mL | IC50 [35]: > 40 µg/mL | neutralization IC50 [25]: > 50 µg/mL

PGV04 (antibody)
IC50 (µg/mL), pseudovirus neutralization [5]: 0.183 µg/mL | IC50 (µg/mL), pseudovirus neutralization [6]: 0.051 µg/mL | IC50 (µg/mL), pseudovirus neutralization [7]: > 50 µg/mL | IC50 (µg/mL), pseudovirus neutralization [8]: 5.75 µg/mL | IC50 (µg/mL), pseudovirus neutralization [9]: 1.51 µg/mL | IC50 (µg/mL), pseudovirus neutralization [26]: 0.218 µg/mL | IC50 (µg/mL), pseudovirus neutralization [27]: 0.879 µg/mL | IC50 (µg/mL), pseudovirus neutralization [28]: 0.058 µg/mL | IC50 (µg/mL), pseudovirus neutralization [29]: 0.027 µg/mL | IC50 (µg/mL), pseudovirus neutralization [30]: 1.23 µg/mL | IC50 (µg/mL), pseudovirus neutralization [31]: 2.48 µg/mL | IC50 (µg/mL), pseudovirus neutralization [32]: 0.148 µg/mL | IC50 (µg/mL), pseudovirus neutralization [33]: 0.071 µg/mL | IC50 (µg/mL), pseudovirus neutralization [34]: 0.04 µg/mL | IC50 (µg/mL), pseudovirus neutralization [35]: 0.03 µg/mL | IC50 (µg/mL), pseudovirus neutralization [10]: 0.268 µg/mL | neutralization IC50 [25]: > 50 µg/mL

4877_D15 (PGT-122) (antibody)
IC50 (ug/ml), neutralizing activity [1]: 0.0337 µg/mL | IC50 (ug/ml), neutralizing activity [2]: 0.0072 µg/mL | IC50 (ug/ml), neutralizing activity [3]: > 10 µg/mL | IC50 (ug/ml), neutralizing activity [4]: > 10 µg/mL | neutralization IC50 [5]: > 50 µg/mL | neutralization IC50 [6]: > 50 µg/mL | neutralization IC50 [7]: > 50 µg/mL | neutralization IC50 [8]: > 50 µg/mL | neutralization IC50 [9]: > 50 µg/mL | IC50 [10]: 4.81 µg/mL | IC50, pseudovirus neutralization [11]: 0.005 µg/mL | IC50, pseudovirus neutralization [12]: 2.15 µg/mL | IC50, pseudovirus neutralization [13]: > 50 µg/mL | IC50, pseudovirus neutralization [14]: 0.514 µg/mL | IC50, pseudovirus neutralization [15]: 31.3 µg/mL | IC50, pseudovirus neutralization [16]: 3.45 µg/mL | IC50, pseudovirus neutralization [17]: 0.008 µg/mL | IC50, pseudovirus neutralization [18]: > 50 µg/mL | IC50, pseudovirus neutralization [19]: > 50 µg/mL | IC50, pseudovirus neutralization [20]: 0.032 µg/mL | IC50, pseudovirus neutralization [21]: 0.016 µg/mL | IC50, pseudovirus neutralization [22]: 0.606 µg/mL | IC50 (ug/ml), neutralizing activity [24]: > 10 µg/mL | IC50, pseudovirus neutralization [25]: > 50 µg/mL | Neutralization by PGT-122, IC50 [25]: > 10 µg/mL | Neutralization by PGT-122, IC80 [25]: > 10 µg/mL | Neutralization by PGT-122, IC90 [25]: > 10 µg/mL | Neutralization by PGT-122, IC95 [25]: > 10 µg/mL

PGT-141 (4964_G22; 4993_K13) (antibody)
IC50 [8]: 33.1 µg/mL | IC50 [9]: 0.101 µg/mL | IC50 [26]: 18 µg/mL | IC50 [27]: 0.049 µg/mL | IC50 [28]: > 50 µg/mL | IC50 [29]: 0.497 µg/mL | IC50 [30]: > 50 µg/mL | IC50 [31]: 19.2 µg/mL | IC50 [32]: > 50 µg/mL | IC50 [33]: 0.118 µg/mL | IC50 [34]: > 50 µg/mL | IC50 [35]: > 50 µg/mL | neutralization IC50 [25]: > 50 µg/mL
